Here are results for three molecules from publication PMC9908020, “Structural basis of the transcription termination factor Rho engagement with transcribing RNA polymerase from Thermus thermophilus” (Science Advances, 2023).

B1: Thermus thermophilus transcription termination factor Rho (enzyme)
chain: MRRKETLQETPLTYQELASKILPELHLLAQEAGIEGYKRMKKDQLIMALLERQTQGEGLRLVKGYLEISQDGYGFLTENLHNLESRVAIVSAGLIKQYALRAGDYVVGQARPPRENERYATLLKVEAVNNLDPEAAKNRPRFDELTPQFPDRQIRLETTPDELSTRVIDLLAPIGRGQRGLIVAPPKAGKTTLLKKIANAVLKNEPDIKVIVLLIDERPEEVTDFRESVQGAEVIASTFDEPPQNHIRVAEFVHERAKRIVEEGGHVMILLDSITRLARANNLVTPPTGRTLSGGLDSAALYFPKRFLGAARNIRGGGSLTILATALVETGSRMDDVIFEEFKGTGNMELHLSRRLEERRIFPAIDILKSGTRREELLLGEEVTHKMWLLRKVLADMDPAEAMEMLLARLARTKNNKEFLASLAAR
notes: Transcription termination factor Rho, Thermus thermophilus; the C terminus is printed as Arg426; the model leaves out 59 residues at the N terminus; Closed-ring homo-hexamer with ADP·BeF3 at the protomer interfaces; RNA is threaded through the central channel in the RNAP complexes; also called wild-type Rho; Rho hexamer; not shown: His tag, N-terminal, cleaved
B2: Thermus thermophilus RNA polymerase ω subunit (natural protein)
chain: MAEPGIDKLFGMVDSKYRLTVVVAKRAQQLLRHGFKNTVLEPEERPKMQTLEGLFDDPNAVTWAMKELLTGRLVFGENLVPEDRLQKEMERLYPVEREE
notes: RNA polymerase ω subunit, Thermus thermophilus; It stood in the assay as a subunit of the RNAP complex m2; It was cloned in pET-47b, which may add a cleavable N-terminal His tag (surmise); source: E. coli Rosetta2 (DE3), coexpressed and purified as part of RNAP

One series deals with T1, T. thermophilus Rho (Thermus thermophilus, UniProt Q5SJE9).
T1 construct: full-length (C terminus Arg426), N-terminal His-tag cleaved by HRV 3C; pET-47b in E. coli Rosetta2 (DE3); closed-ring homohexamer; model lacks 59 N-terminal residues
Put plainly: Rho-dependent RNA release from immobilised RNAP elongation complex, urea-PAGE. Format: biochemical. The conditions noted are these: 1 mM ATP, 200 nM Rho, 10 mM MgCl2, pH 7.5, 65 °C; with T. thermophilus RNAP elongation complex.

Series [1] concerns the molecule itself. Nature of the series: cryo-EM structure; Rho-only class of the same sample: closed-ring hexamer with ADP·BeF3 between the protomers; C6 symmetry.
For series [2], the target named is T2, Thermus thermophilus RNA polymerase β′ subunit (Thermus thermophilus, UniProt Q8RQE8 1-1524).
T2 construct: RNA polymerase β′ subunit, Thermus thermophilus; It stood in the assay as a subunit of the RNAP complex m2; source: E. coli Rosetta2 (DE3), coexpressed and purified as part of RNAP
Put plainly: cryo-EM structure; type 1 class: EC (RNAP with template DNA and 125-nt nascent RNA, gel filtered) mixed with Rho and 0.5 mM ADP·BeF3 in buffer C (20 mM Hepes-NaOH pH 7.5, 250 mM KCl, 5 mM MgCl2, 1% glycerol), cross-linked with 3 mM BS3; nascent RNA threaded into the Rho ring. As to conditions: both partners purified.

Series [3] concerns the target T3, Thermus thermophilus RNA polymerase β subunit (Thermus thermophilus, UniProt Q8RQE9 1-1119).
T3 construct: RNA polymerase β subunit, Thermus thermophilus; It stood in the assay as a subunit of the RNAP complex m2; source: E. coli Rosetta2 (DE3), coexpressed and purified as part of RNAP
The description is as above. As to conditions: both partners purified.

The target in series [4] is T4, Thermus thermophilus RNA polymerase lacking the β-flap tip helix (Thermus thermophilus, UniProt Q5SHR6 1-315; Q8RQE9 1-761; Q8RQE9 783-1119; Q8RQE8 1-1524; Q8RQE7 1-99).
T4 construct: RNA polymerase α subunit, Thermus thermophilus; RNA polymerase β subunit, Thermus thermophilus, up to the residue before the deleted β-flap tip helix (β762 to β782 removed); three alanine residues that fill the gap; RNA polymerase β subunit, Thermus thermophilus, from the residue after the deleted β-flap tip helix; RNA polymerase β′ subunit, Thermus thermophilus; RNA polymerase ω subunit, Thermus …
Nature of the series: cryo-EM structure; EC-Rho complex prepared with the β-flap tip-deleted RNAP; 2D class averages of ~3000 particles of the RNAP-Rho complex. The conditions noted are these: both partners purified.

For series [5], the target named is B1. Nature of the series: cryo-EM structure; type 1 class: EC (RNAP with template DNA and 125-nt nascent RNA, gel filtered) mixed with Rho and 0.5 mM ADP·BeF3 in buffer C (20 mM Hepes-NaOH pH 7.5, 250 mM KCl, 5 mM MgCl2, 1% glycerol), cross-linked with 3 mM BS3; nascent RNA threaded into the Rho ring. The conditions noted are these: both partners purified.

With `Nc1ncnc2c1ncn2[C@@H]1O[C@H](COP(=O)(O)OP(=O)(O)OP(=O)(O)O)[C@@H](O)[C@H]1O` [ATP], the “Rho-dependent RNA release from immobilised RNAP elongation complex, urea-PAGE” value at T. thermophilus Rho is reported as “The RNA release is ATP dependent, as it did not occur in either the absence”.
For B1, the stoichiometry N (in general, a count of units in the complex or per binding partner) in series [1] was 6. For the same molecule, the binding result in series [2], in series [3] and in series [4] was “binds” each time.
On to B2, for which, in series [5], the binding result is recorded as “binds”.
